# Measurements: the Immune Epitope Database (IEDB)
# Experiments:
# Assay in all cases: IEDB peptide-MHC binding, purified MHC/competitive/radioactivity; ≥ and ≤ were set here for values at or beyond the usual limits of such assays
# Conditions in all cases: source organism: Bordetella pertussis
# HLA-B*35:01 = target: HLA-B*35:01
# HLA-B*07:02 = target: HLA-B*07:02
# HLA-B*53:01 = target: HLA-B*53:01
# HLA-A*02:01 = target: HLA-A*02:01
# HLA-B*57:01 = target: HLA-B*57:01
# HLA-B*44:03 = target: HLA-B*44:03
sequence,measurement,setting,value
ADDPPATVY,IC50,HLA-B*35:01,69.9 µM
ARRSRVRAL,IC50,HLA-B*07:02,15.8 µM
DPPATVYRY,IC50,HLA-B*35:01,7.2 µM
same,IC50,HLA-B*53:01,52.9 µM
EGKMESNKD,IC50,HLA-A*02:01,≥ 78.1 µM
EPVKLTLTG,IC50,HLA-B*35:01,13.7 µM
EVRADNNFY,IC50,HLA-B*35:01,25.6 µM
KLLHHILPI,IC50,HLA-A*02:01,0.312 µM
KQADRDFVW,IC50,HLA-B*57:01,11.3 µM
LSGEVQRKG,IC50,HLA-B*57:01,≥ 70.4 µM
NPYTSRRSV,IC50,HLA-B*07:02,0.274 µM
PGPQPPQPQ,IC50,HLA-B*44:03,48.6 µM
PKPKPKPKP,IC50,HLA-B*35:01,64.9 µM
RKMLYLIYV,IC50,HLA-A*02:01,5.45 µM
RVRALSWLL,IC50,HLA-B*57:01,2.12 µM
SLFAILSST,IC50,HLA-A*02:01,1.42 µM
TEVYLEHRM,IC50,HLA-B*44:03,2.72 µM
TSRRSVASI,IC50,HLA-B*57:01,4.54 µM
TVLAAGAGL,IC50,HLA-B*07:02,69.6 µM
